Data on one protein can be found in publication PMC6751202, “An aggregon in conductin/axin2 regulates Wnt/β-catenin signaling and holds potential for cancer therapy” (Nature Communications, 2019).

This data set concerns the molecule itself. Description: native gel or EMSA; recombinant GST-RGS Cdt and GST-RGS Cdt QV-PS purified from bacteria; PAGE under non-denaturing conditions, Western blot.

B1: GST-RGS Cdt (domain or fragment, mouse, UniProt O88566 67-208, looked up)
chain: GRASPDSPLTRWTKSLHSLLGDQDGAYLFRTFLEREKCVDTLDFWFACNGFRQMNLKDTKTLRVAKAIYKRYIENNSVVSKQLKPATKTYIRDGIKKQQIGSVMFDQAQTEIQAVMEENAYQVFLTSDIYLEYVRSGGENTA
notes: RGS domain of mouse conductin/axin2, amino acids 67-208; Cloned into pGEX-6P-1, which as far as I know puts GST at the N-terminus; GST itself can dimerise; also called isolated conductin RGS domain; recombinant GST-RGS Cdt; source: Rosetta (DE3) bacteria, purified (glutathione beads, eluted with free glutathione)
Turning to B1, the binding result is listed as “binds”.
